Key:
[1] = molecular target: Recombinant Human Axl Protein Axl-tag 5 (human) (UniProt P30530); assay: competition ELISA on immobilized Axl-tag 5; unlabeled antibody 50 ug/mL; competitor Biot-v77-2a37.1 1 ug/mL
[2] = molecular target: Recombinant Human Axl Protein Axl-tag 5 (human) (UniProt P30530); assay: competition ELISA on immobilized Axl-tag 5; unlabeled antibody 50 ug/mL; competitor Biot-v77-2a37.1 1 ug/mL (signal is of the biotinylated antibody)
[3] = molecular target: Recombinant Human Axl Protein Axl-tag 5 (human) (UniProt P30530); assay: competition ELISA on immobilized Axl-tag 5; unlabeled antibody 50 ug/mL; competitor Biot-M77-297b81.1.1 1 ug/mL (signal is of the biotinylated antibody)
[4] = molecular target: Recombinant Human Axl Protein Axl-tag 5 (human) (UniProt P30530); assay: competition ELISA on immobilized Axl-tag 5; unlabeled antibody 50 ug/mL; competitor Biot-M77-297b81.1.1 1 ug/mL

Chain of UniProt P30530 (P30530 26-451): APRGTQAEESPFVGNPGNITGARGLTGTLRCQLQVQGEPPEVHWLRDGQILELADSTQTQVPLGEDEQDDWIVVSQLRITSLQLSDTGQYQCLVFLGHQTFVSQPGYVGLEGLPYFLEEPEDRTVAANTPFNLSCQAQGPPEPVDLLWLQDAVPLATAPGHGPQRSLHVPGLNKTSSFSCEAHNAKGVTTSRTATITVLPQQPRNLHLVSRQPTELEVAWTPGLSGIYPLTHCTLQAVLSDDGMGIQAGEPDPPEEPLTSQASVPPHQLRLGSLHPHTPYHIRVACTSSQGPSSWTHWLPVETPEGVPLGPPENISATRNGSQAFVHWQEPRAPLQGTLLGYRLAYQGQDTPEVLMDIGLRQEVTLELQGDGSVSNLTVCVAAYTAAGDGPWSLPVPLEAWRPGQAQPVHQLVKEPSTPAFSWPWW

% competition [1]: 3.3%
OD (650 nm) [2]: 1.81 OD (650 nm)
OD (650 nm) [3]: 2.13 OD (650 nm)
% competition [4]: 1.5%
Substance: AXL(C89E7) rabbit anti-human Axl monoclonal antibody (Cell Signaling)

— patent US20240076390A1
